The record followed here is publication PMC5582858, “The yeast kinesin-5 Cin8 interacts with the microtubule in a noncanonical manner” (The Journal of Biological Chemistry, 2017).

Series [1] addresses Paclitaxel-stabilized microtubules (bovine brain αβ-tubulin) (bovine) (UniProt Q6B856). The experiment in a line: co-sedimentation; Cin8-His with microtubules, no added nucleotide, high ionic strength (88 mM), 298 K; Cin8 left in the supernatant measured by the NADH coupled ATPase assay; apparent constants.
The target of series [2] is Pre-formed microtubule·Eg5 complex (bovine | human) (UniProt Q6B856). The experiment in a line: stopped-flow light scattering; 0.5–5 μM Cin8-His rapidly mixed with a pre-formed microtubule·Eg5 complex (0.5 μM Eg5, 0.5 μM microtubules), low ionic strength, 298 K; amplitudes fit to Equation 6, observed rates to Equation 8.
Series [3] concerns the target Paclitaxel-stabilized microtubules (bovine brain αβ-tubulin) (bovine) (UniProt Q6B856).
The target is the same in series [4]. The series is described as follows: co-sedimentation; Cin8-His with microtubules, no added nucleotide, low ionic strength (21 mM), 298 K; Cin8 left in the supernatant measured by the NADH coupled ATPase assay; apparent constants.
For series [5] the target is unchanged. The series is described as follows: co-sedimentation; 0.5 μM Cin8-His, 0–2 μM microtubules, 1 mM ATP plus ATP regeneration system, low ionic strength (21 mM); fraction bound by NADH-coupled assay; apparent constants.
Series [6] deals with Pre-formed microtubule·Eg5 complex (bovine | human) (UniProt Q6B856). The series is described as follows: stopped-flow light scattering; 0.5–5 μM Cin8-His rapidly mixed with a pre-formed microtubule·Eg5 complex (0.5 μM Eg5, 0.5 μM microtubules), low ionic strength, 298 K; amplitudes fit to Equation 6, observed rates to Equation 8. This is another data set of the same source.
The target in series [7] is Paclitaxel-stabilized microtubules (bovine brain αβ-tubulin) (bovine) (UniProt Q6B856). The series is described as follows: co-sedimentation; 0.5 μM Cin8-His, 0–2 μM microtubules, 1 mM ATP plus ATP regeneration system, high ionic strength (88 mM); fraction bound by NADH-coupled assay; apparent constants.
The target is the same in series [8]. The description is as above. This is another data set of the same source.
Series [9] shares this target. The series is described as follows: co-sedimentation; 0.5 μM Cin8-His, 0–2 μM microtubules, 1 mM ATP plus ATP regeneration system, low ionic strength (21 mM); fraction bound by NADH-coupled assay; apparent constants. The source holds these as a separate data set.
The target is the same in series [10]. The experiment in a line: co-sedimentation; 2 μM kinesin, 0–4 μM paclitaxel-stabilised microtubules, no added nucleotide, low ionic strength (21 mM; ATPase buffer with 7.5 mM KCl), 298 K, 100,000 × g 30 min; supernatant and pellet by SDS-PAGE; apparent constants, fit to Equation 3.
The target is the same in series [11]. The experiment in a line: co-sedimentation; 2 μM kinesin, 0–4 μM paclitaxel-stabilised microtubules, no added nucleotide, high ionic strength (88 mM; ATPase buffer with 75 mM KCl), 298 K, 100,000 × g 30 min; supernatant and pellet by SDS-PAGE; apparent constants, fit to Equation 3.
Series [12] shares this target. The series is described as follows: co-sedimentation; competition: 0–14 μM Cin8-trx added to 2 μM Eg5 and 2 μM microtubules, 60 min at 298 K before centrifugation, low ionic strength; fraction Eg5 bound fit to Equation 5 with Kd,Eg5 fixed; apparent.
Series [13] shares this target. The series is described as follows: co-sedimentation; 2 μM kinesin, 0–4 μM paclitaxel-stabilised microtubules, no added nucleotide, high ionic strength (88 mM; ATPase buffer with 75 mM KCl), 298 K, 100,000 × g 30 min; supernatant and pellet by SDS-PAGE; apparent constants, fit to Equation 3. The source holds these as a separate data set.
For series [14] the target is unchanged. The series is described as follows: co-sedimentation; 2 μM kinesin, 0–4 μM paclitaxel-stabilised microtubules, no added nucleotide, low ionic strength (21 mM; ATPase buffer with 7.5 mM KCl), 298 K, 100,000 × g 30 min; supernatant and pellet by SDS-PAGE; apparent constants, fit to Equation 3. This is another data set of the same source.
The target is the same in series [15]. The series is described as follows: co-sedimentation; 4 μM Cin8-trx, 1 μM microtubules, 20 μM paclitaxel; ATPase buffer, without glycerol, plus DTT, PIPES pH 6.9, sodium phosphate pH 7.2, 10 mM NaCl or 10 mM potassium acetate.
Series [16] has the same target. The series is described as follows: co-sedimentation; competition: 0–14 μM Cin8-trx added to 2 μM Eg5 and 2 μM microtubules, 60 min at 298 K before centrifugation, high ionic strength; fraction Eg5 bound fit to Equation 5 with Kd,Eg5 fixed; apparent.
Substrate in series [17]: Nc1ncnc2c1ncn2[C@@H]1O[C@H](COP(=O)(O)OP(=O)(O)OP(=O)(O)O)[C@@H](O)[C@H]1O
The series is described as follows: NADH-coupled steady-state ATPase assay. The following applies: low ionic strength (21 mM), 20 mM HEPES pH 7.2, 2 mM MgCl2, 7.5 mM KCl, 20% glycerol, 298 K, 25.0 °C. It counts as biochemical, Saccharomyces cerevisiae. From the text: NADH-coupled steady-state ATPase assay on Cin8-His (Cin8 motor domain)

[18] abbreviates: microtubule-stimulated (2 μM bovine brain microtubules, paclitaxel-stabilized).

Where two headings read alike, the source gives them in different places.

B1: Cin8-His (S. cerevisiae kinesin-5 Cin8 motor domain, residues 70–535, with N-terminal His6 and TEV cleavage tags) (domain or fragment)
chain: ISINTTGDTGITAQMNAKRYTVDKVFGPGASQDLIFDEVAGPLFQDFIKGYNCTVLVYGMTSTGKTYTMTGDEKLYNGELSDAAGIIPRVLLKLFDTLELQQNDYVVKCSFIELYNEELKDLLDSNSNGSSNTGFDGQFMKKLRIFDSSTANNTTSNSASSSRSNSRNSSPRSLNDLTPKAALLRKRLRTKSLPNTIKQQYQQQQAVNSRNNSSSNSGSTTNNASSNTNTNNGQRSSMAPNDQTNGIYIQNLQEFHITNAMEGLNLLQKGLKHRQVASTKMNDFSSRSHTIFTITLYKKHQDELFRISKMNLVDLAGSENINRSGALNQRAKEAGSINQSLLTLGRVINALVDKSGHIPFRESKLTRLLQDSLGGNTKTALIATISPAKVTSEETCSTLEYASKAKNIKNKPQLGSFIMKDILVKNITMELAKIKSDLLSTKSKEGIYMSQDHYKNLNSDLESYKN
By stoichiometry N is commonly meant the number of molecules, sites or subunits per partner or assembly. As a reminder, the kon is the second-order rate constant of association. High values mean faster complex formation, low ones slower complex formation. For orientation: koff means the rate constant with which the complex falls apart. A high value points to a short-lived complex. Take B1: the Kd in series [1] was 180 nM; in [4] it was 260 nM; in series [5], 140 nM; in series [7], 960 nM; in series [8], 1600 nM; in series [9], 110 nM. Further, the stoichiometry N in [1] came to 3; in series [4] it was 3.1; in [5], 3.7; in series [7] it was 6.1. The on-rate constant (kon) in series [2] amounted to 1.1e+06 M⁻¹ s⁻¹; in series [6], 1e+06 M⁻¹ s⁻¹. The molecule also displayed a K0.5,MT of the microtubule-stimulated steady-state ATPase (NADH coupled assay), 21 mM ionic strength in series [3] of 0.08 µM. Further, the K0.5,MT of the microtubule-stimulated steady-state ATPase (NADH coupled assay), 88 mM ionic strength in series [3] stood at 1.8 µM. The molecule also had a K0.5 (Cin8 concentration at half-maximal light-scattering amplitude) in series [6] of 0.27 µM. Besides, the off-rate (koff) in [6] was determined as 3.1 s⁻¹.

B2: Cin8-trx (Cin8 motor domain, residues 70–535, fused to N-terminal thioredoxin (TrxA), His6, TEV cleavage and Arg9 tags) (domain or fragment)
chain: B1 chain
Turning to B2, the Kd in series [10] was 13 nM; in [11], 130 nM; in series [12], 2 nM; in series [14], 1 nM; in series [16], 590 nM. For the same molecule, the stoichiometry N was 4 in series [11], 3 to 5 in series [13], 5.1 in [14] and 4 in series [15].

B3: Cin8-His (Cin8 motor domain) (Saccharomyces cerevisiae S288C; DEL254-353/DEL32-69/INS253NNNNNSS) (protein)
chain: ISINTTGDTGITAQMNAKRYTVDKVFGPGASQDLIFDEVAGPLFQDFIKGYNCTVLVYGMTSTGKTYTMTGDEKLYNGELSDAAGIIPRVLLKLFDTLELQQNDYVVKCSFIELYNEELKDLLDSNSNGSSNTGFDGQFMKKLRIFDSSTANNTTSNSASSSRSNSRNSSPRSLNDLTPKAALLNNNNNSSSSRSHTIFTITLYKKHQDELFRISKMNLVDLAGSENINRSGALNQRAKEAGSINQSLLTLGRVINALVDKSGHIPFRESKLTRLLQDSLGGNTKTALIATISPAKVTSEETCSTLEYASKAKNIKNKPQLGSFIMKDILVKNITMELAKIKSDLLSTKSKEGIYMSQDHYKNLNSDLESYKN
notes: motor domain residues 70-535; N-terminal His6 and TEV site tags kept; expressed in E. coli B834(DE3); monomeric in solution
One may read the Km as the concentration of substrate that gives half-maximal velocity. Regarding B3, in series [17] (microtubule-stimulated), the Km was 45 ± 4 µM and the kcat is 0.36 ± 0.22 s^−1 site^−1.

B4: Cin8-His (Cin8 motor domain) (Saccharomyces cerevisiae S288C) (protein)
chain: NEELNITVAVRCRGRNEREISMKSSVVVNVPDITGSKEISINTTGDTGITAQMNAKRYTVDKVFGPGASQDLIFDEVAGPLFQDFIKGYNCTVLVYGMTSTGKTYTMTGDEKLYNGELSDAAGIIPRVLLKLFDTLELQQNDYVVKCSFIELYNEELKDLLDSNSNGSSNTGFDGQFMKKLRIFDSSTANNTTSNSASSSRSNSRNSSPRSLNDLTPKAALLRKRLRTKSLPNTIKQQYQQQQAVNSRNNSSSNSGSTTNNASSNTNTNNGQRSSMAPNDQTNGIYIQNLQEFHITNAMEGLNLLQKGLKHRQVASTKMNDFSSRSHTIFTITLYKKHQDELFRISKMNLVDLAGSENINRSGALNQRAKEAGSINQSLLTLGRVINALVDKSGHIPFRESKLTRLLQDSLGGNTKTALIATISPAKVTSEETCSTLEYASKAKNIKNKPQLGSFIMKDILVKNIT
notes: as for B3
On to B4, for which, in series [17] (setting [18]), the Michaelis-Menten constant (Km) came out at 29 ± 16 µM and the kcat was found to be 0.38 ± 0.04 s^−1 site^−1.
